# Test results reported in US20240417436A1 (BRIGHT PEAK THERAPEUTICS, published 2024).
# Primed or numbered codes have the meaning given here. [ ]: non-standard residue; d: D form. Ygp″ = O-(PEG8-amino)-tyrosine (O-(8x polyethylene glycol-amino)-tyrosine); Yn3″ = O-(PEG9-azido)-tyrosine (O-(9x polyethylene glycol-azido)-tyrosine); Ygp = O-(8x polyethylene glycol-amino)-tyrosine; Yn3 = O-(9x polyethylene glycol-azido)-tyrosine; hSer = N[C@@H](CCO)C(=O)O; Nle = CCCC[C@H](N)C(=O)O
# B1: CMP-137, MMP2 cleaved (ligand)
# chain: APTSSSTKKTQLQLEHLLLDLQ[Nle]ILNGIENYKNPKLTR[Nle]L[hSer][Yn3″]KF[Ygp″][Nle]PKKATELKHLQCLEEELKPLEEVL[hSer]LAQSKNFHLRPRDLISNINVIVLELKGSETTF[hSer]CEYADETATIVEFLNRWITFSQSIISTLT
# modifications: not fully specified (residue 29, N-terminus); ends and bridges not checked; also: macrocycle opened by MMP2, Ala1 N-terminus and Glu29 side chain each carry PEG24-linked peptide remnant, cut site not given here
# B2: CMP-136, MMP2 cleaved (ligand)
# chain: APTSSSTKKTQLQLEHLLLDLQXILNGIENYKNPKLTRXLXYKFYXPKKATELKHLQCLEEELKPLEEVLXLAQSKNFHLRPRDLISNINVIVLELKGSETTFXCEYADETATIVEFLNRWITFSQSIISTLT
# modifications: not fully specified; as CMP-136 but cleavable peptide cut by MMP2 (macrocycle opened); cut site not given
# B3: CMP-138, MMP2 cleaved (ligand)
# chain: B2 chain
# modifications: not fully specified; as CMP-138 but cleavable peptide cut by MMP2 (macrocycle opened); cut site not given
# B4: CMP-148 (ligand)
# chain: APTSSSTKKTQLQLKHLLLDLQ[Nle]ILNGINNYKNPKLTR[Nle]L[hSer][Yn3]KF[Ygp][Nle]PKKATELKHLQCLEEELKPLEEVL[hSer]LAQSKNFHLRPRDLISNINVIVLELKGSETTF[hSer]CEYADETATIVEFLNRWITFSQSIISTLT
# modifications: not fully specified (residue 15); ends and bridges not checked; also: cleavable moiety on Lys15 side chain, structure not given here
# B5: CMP-147 (ligand)
# chain: APTSSSTKKTQLKLEHLLLDLQ[Nle]ILNGINNYKNPKLTR[Nle]L[hSer][Yn3]KF[Ygp][Nle]PKKATELKHLQCLEEELKPLEEVL[hSer]LAQSKNFHLRPRDLISNINVIVLELKGSETTF[hSer]CEYADETATIVEFLNRWITFSQSIISTLT
# modifications: not fully specified (residue 13); ends and bridges not checked; also: cleavable moiety on Lys13 side chain, structure not given here
# B6: CMP-146 (ligand)
# chain: APTSSSTKKTKLQLEHLLLDLQ[Nle]ILNGINNYKNPKLTR[Nle]L[hSer][Yn3]KF[Ygp][Nle]PKKATELKHLQCLEEELKPLEEVL[hSer]LAQSKNFHLRPRDLISNINVIVLELKGSETTF[hSer]CEYADETATIVEFLNRWITFSQSIISTLT
# modifications: not fully specified (residue 11); ends and bridges not checked; also: cleavable moiety on Lys11 side chain, structure not given here
# B7: CMP-144, MMP2 cleaved (ligand)
# chain: APTSSSTKKTQLQLEHLLLDLQKILNGINNYKNPKLTR[Nle]L[hSer][Yn3]KF[Ygp][Nle]PKKATELKHLQCLEEELKPLEEVL[hSer]LAQSKNFHLRPRDLISNINVIVLELKGSETTF[hSer]CEYADETATIVEFLNRWITFSQSIISTLT
# modifications: not fully specified (residue 23); ends and bridges not checked; also: MMP2-cut remnant of cleavable moiety on Lys23 side chain, not given here
# B8: CMP-149, MMP2 cleaved (ligand)
# chain: APTSSSTKKTQLQLEHLLKDLQ[Nle]ILNGINNYKNPKLTR[Nle]L[hSer][Yn3]KF[Ygp][Nle]PKKATELKHLQCLEEELKPLEEVL[hSer]LAQSKNFHLRPRDLISNINVIVLELKGSETTF[hSer]CEYADETATIVEFLNRWITFSQSIISTLT
# modifications: not fully specified (residue 19); ends and bridges not checked; also: MMP2-cut remnant of cleavable moiety on Lys19 side chain, not given here
# B9: CMP-149 (ligand)
# chain: APTSSSTKKTQLQLEHLLKDLQ[Nle]ILNGINNYKNPKLTR[Nle]L[hSer][Yn3]KF[Ygp][Nle]PKKATELKHLQCLEEELKPLEEVL[hSer]LAQSKNFHLRPRDLISNINVIVLELKGSETTF[hSer]CEYADETATIVEFLNRWITFSQSIISTLT
# modifications: not fully specified (residue 19); ends and bridges not checked; also: cleavable moiety on Lys19 side chain, structure not given here
# B10: CMP-148, MMP2 cleaved (ligand)
# chain: APTSSSTKKTQLQLKHLLLDLQ[Nle]ILNGINNYKNPKLTR[Nle]L[hSer][Yn3]KF[Ygp][Nle]PKKATELKHLQCLEEELKPLEEVL[hSer]LAQSKNFHLRPRDLISNINVIVLELKGSETTF[hSer]CEYADETATIVEFLNRWITFSQSIISTLT
# modifications: not fully specified (residue 15); ends and bridges not checked; also: MMP2-cut remnant of cleavable moiety on Lys15 side chain, not given here
# B11: CMP-150, MMP2 cleaved (ligand)
# chain: APTSSSTKKTQLQLEHLLLDLK[Nle]ILNGINNYKNPKLTR[Nle]L[hSer][Yn3]KF[Ygp][Nle]PKKATELKHLQCLEEELKPLEEVL[hSer]LAQSKNFHLRPRDLISNINVIVLELKGSETTF[hSer]CEYADETATIVEFLNRWITFSQSIISTLT
# modifications: also: K22 side chain bears remnant of cleavable peptide after MMP2 cut, cut site not given here
# B12: CMP-150 (ligand)
# chain: APTSSSTKKTQLQLEHLLLDLK[Nle]ILNGINNYKNPKLTR[Nle]L[hSer][Yn3]KF[Ygp][Nle]PKKATELKHLQCLEEELKPLEEVL[hSer]LAQSKNFHLRPRDLISNINVIVLELKGSETTF[hSer]CEYADETATIVEFLNRWITFSQSIISTLT
# modifications: not fully specified (residue 22); ends and bridges not checked; also: cleavable moiety on Lys22 side chain, structure not given here
# B13: CMP-146, MMP2 cleaved (ligand)
# chain: APTSSSTKKTKLQLEHLLLDLQ[Nle]ILNGINNYKNPKLTR[Nle]L[hSer][Yn3]KF[Ygp][Nle]PKKATELKHLQCLEEELKPLEEVL[hSer]LAQSKNFHLRPRDLISNINVIVLELKGSETTF[hSer]CEYADETATIVEFLNRWITFSQSIISTLT
# modifications: not fully specified (residue 11); ends and bridges not checked; also: MMP2-cut remnant of cleavable moiety on Lys11 side chain, not given here
# B14: CMP-147, MMP2 cleaved (ligand)
# chain: APTSSSTKKTQLKLEHLLLDLQ[Nle]ILNGINNYKNPKLTR[Nle]L[hSer][Yn3]KF[Ygp][Nle]PKKATELKHLQCLEEELKPLEEVL[hSer]LAQSKNFHLRPRDLISNINVIVLELKGSETTF[hSer]CEYADETATIVEFLNRWITFSQSIISTLT
# modifications: not fully specified (residue 13); ends and bridges not checked; also: MMP2-cut remnant of cleavable moiety on Lys13 side chain, not given here
# B15: CMP-145, MMP2 cleaved (ligand)
# chain: APTSSSTKKTQLQLEHLLLDLQKILNGINNYKNPKLTR[Nle]L[hSer][Yn3]KF[Ygp][Nle]PKKATELKHLQCLEEELKPLEEVL[hSer]LAQSKNFHLRPRDLISNINVIVLELKGSETTF[hSer]CEYADETATIVEFLNRWITFSQSIISTLT
# modifications: not fully specified (residue 23, bridges); also: Lys23 side chain bears KKPLGLAG (branched PEG) peptide cut by MMP2, remnants stay attached, cut site not given here
# Target: T1, IL-2 receptor βγ complex on pan T cells (human, UniProt P14784 27-551; P31785 23-369)
# T1 sequence (looked up) 1: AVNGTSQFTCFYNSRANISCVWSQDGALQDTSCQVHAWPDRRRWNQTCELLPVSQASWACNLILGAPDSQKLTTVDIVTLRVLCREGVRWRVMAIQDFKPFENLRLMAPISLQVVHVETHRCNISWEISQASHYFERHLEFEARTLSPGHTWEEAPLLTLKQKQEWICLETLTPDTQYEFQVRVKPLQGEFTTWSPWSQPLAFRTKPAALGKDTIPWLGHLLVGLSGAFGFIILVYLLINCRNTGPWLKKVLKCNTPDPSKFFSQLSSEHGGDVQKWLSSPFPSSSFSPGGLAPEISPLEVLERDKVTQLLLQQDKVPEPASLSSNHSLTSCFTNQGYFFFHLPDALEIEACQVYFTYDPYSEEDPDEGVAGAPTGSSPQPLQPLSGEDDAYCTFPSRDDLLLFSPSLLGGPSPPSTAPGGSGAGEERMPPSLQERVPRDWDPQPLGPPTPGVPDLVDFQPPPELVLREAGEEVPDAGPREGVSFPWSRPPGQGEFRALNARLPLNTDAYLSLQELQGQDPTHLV
# T1 sequence (looked up) 2: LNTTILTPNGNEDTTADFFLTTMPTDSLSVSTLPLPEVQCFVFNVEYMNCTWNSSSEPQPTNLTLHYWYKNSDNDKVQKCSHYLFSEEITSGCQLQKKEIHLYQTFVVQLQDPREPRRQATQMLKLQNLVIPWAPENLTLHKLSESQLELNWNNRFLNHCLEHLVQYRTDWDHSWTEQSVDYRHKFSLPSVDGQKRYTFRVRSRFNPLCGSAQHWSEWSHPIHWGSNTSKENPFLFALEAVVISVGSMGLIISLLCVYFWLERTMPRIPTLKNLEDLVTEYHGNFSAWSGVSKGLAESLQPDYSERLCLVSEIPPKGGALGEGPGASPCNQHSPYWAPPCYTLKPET
# Experiment: cell-based or functional assay
row,Binder,"Average EC50, pSTAT5 assay in pan T cells, MMP2 cleaved molecule"
1,B1,4.09 nM
2,B2,2.4 nM
3,B3,2.32 nM

# Target: T1, IL-2 receptor βγ complex on pan T cells
# Experiment: cell-based or functional assay
# Remark: another data set of the same source
Binder,"Average EC50, pSTAT5 assay in pan T cells, intact molecule","Average EC50, pSTAT5 assay in pan T cells, MMP2 cleaved molecule"
B4,3.57 nM,
B5,3.86 nM,
B6,4.29 nM,
B7,,0.63 nM
B8,,9.56 nM
B9,46.7 nM,
B10,,0.95 nM
B11,,0.45 nM
B12,6.38 nM,
B13,,0.92 nM
B14,,1.29 nM
B15,,1.43 nM
